Laboratory results from paper PMC5000626, “Urinary Dopamine as a Potential Index of the Transport Activity of Multidrug and Toxin Extrusion in the Kidney” (International Journal of Molecular Sciences, 2016).

Substrate: NCCc1ccc(O)c(O)c1
Assay: cells, lysate or membranes
Details: other: [3H]dopamine uptake at 1 min, HEK293 cells expressing mMATE1, mean ± S.E., n=3; pH 7.4; 37.0 °C

B1: mMATE1 (Mus musculus) (protein)
chain: MERTEESAPGPGGADAASERRGLRCLLLPGFLEELRALLVLAGPAFLAQLMMFLISFISSVFCGHLGKLELDAVTLAIAVINVTGISVGHGLSSACDTLISQTYGSQNLKHVGVILQRGTLILLLCCFPCWALFINTEQILLLFRQDPDVSRLTQTYVMIFIPALPAAFLYTLQVKYLLNQGIVLPQIMTGIAANLVNALANYVFLYHLHLGVMGSALANTISQFALAIFLFLYILWRRLHQATWGGWSWECLQDWASFLRLAIPSMLMLCIEWWAYEVGSFLSGILGMVELGAQSITYELAIIVYMIPSGFSVAANVRVGNALGAGNIDQAKKSSAISLIVTELFAVTFCVLLLGCKDLVGYIFTTDRDIVALVAQVIPIYAVSHLFEGLACTCGGILRGTGNQKVGAIVNAIGYYVIGLPIGIALMFAAKLGVIGLWSGIIICTTCQTTCFLAFIARLNWKRACQQAQVHANLKVNVALNSAVSHEPAHPVCPESHGEIMMTDLEKKDETQLDQPMNQQQALPIRPKDSNKLSGKQLALRRGLLLLGVVLVLVGGILVRVYIRIE
With B1 the Km was 530 ± 80 µM.
